Assay [1] deals with T1, recombinant human TrkA ECD protein (human, UniProt P04629 33-423).
T1 construct: extracellular domain; also called hTrkA-ECD-hFc; hTrkA; not shown: C-terminal human Fc tag (hFc)
As to the kind of experiment: ELISA on recombinant TrkA ECD proteins (FIG. 1b). In general terms: ELISA stands for enzyme-linked immunosorbent assay.

Assay [2] has as its target T2, recombinant mouse TrkA ECD protein (mouse, UniProt Q3UFB7 34-420).
T2 construct: extracellular domain; also called mTrkA-ECD-hFc; murine TrkA; not shown: C-terminal human Fc tag (hFc)
The assay is described as follows: ELISA on recombinant TrkA ECD proteins (FIG. 1b).

T1 sequence (P04629 33-423): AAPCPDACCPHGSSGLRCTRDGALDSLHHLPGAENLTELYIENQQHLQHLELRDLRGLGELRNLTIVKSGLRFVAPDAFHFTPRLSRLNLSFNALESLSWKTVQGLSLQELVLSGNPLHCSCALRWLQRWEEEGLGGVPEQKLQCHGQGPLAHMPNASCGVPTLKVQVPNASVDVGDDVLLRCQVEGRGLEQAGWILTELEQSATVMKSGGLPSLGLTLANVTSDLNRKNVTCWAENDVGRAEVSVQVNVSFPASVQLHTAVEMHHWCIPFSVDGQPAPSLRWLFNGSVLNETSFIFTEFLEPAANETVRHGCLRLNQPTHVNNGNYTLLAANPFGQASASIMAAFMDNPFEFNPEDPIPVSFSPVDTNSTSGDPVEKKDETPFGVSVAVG
T2 sequence (Q3UFB7 34-420): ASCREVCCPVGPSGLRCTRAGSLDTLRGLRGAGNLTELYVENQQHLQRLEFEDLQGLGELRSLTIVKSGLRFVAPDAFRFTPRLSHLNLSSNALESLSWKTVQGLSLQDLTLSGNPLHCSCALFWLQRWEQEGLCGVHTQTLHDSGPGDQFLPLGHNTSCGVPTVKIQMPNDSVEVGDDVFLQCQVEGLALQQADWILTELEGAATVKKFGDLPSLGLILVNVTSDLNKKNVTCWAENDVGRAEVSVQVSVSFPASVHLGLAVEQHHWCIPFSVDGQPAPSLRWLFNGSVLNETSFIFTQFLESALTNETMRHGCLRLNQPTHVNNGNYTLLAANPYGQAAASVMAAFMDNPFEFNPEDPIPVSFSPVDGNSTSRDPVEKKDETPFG

B1: 27A6 (antibody, mouse IgG1, V domains shown)
VH: QVQLQQSGAELMEPGASVKISCKATGYTFSRYWIEWVQQRPGHGLEWIGEILPGSGTTNYNENFRGKATFTADTSSNTVYMQLISLTSEDSAVYYCARSYYGDFDAYWGQGTLVTVSA
VL: QAVVTQESALTTSPGETVTLTCRSSIGAVTTSNHANWVQEKPDHLFTGLIGGTNNRAPGVPARFSGSLIGDKAVLTITGAQTEDEAIYFCALWYSNHWVFGGGTKLTVLG
notes: also called TrkA antibody; TrkA antibody of the present application
For B1, the binding result in assay [1] and in assay [2] was “binds” throughout.

The values are drawn from US20250084173A1 (4B TECHNOLOGIES SUZHOU, published 2025).
